Results published in publication PMC6673701, “Structure of Myosin VI/Tom1 complex reveals a cargo recognition mode of Myosin VI for tethering” (Nature Communications, 2019).

B1: Tom1(437–463), Myosin VI-binding motif (domain or fragment, human, UniProt O60784-2 437-463, looked up)
chain: GVTSEGKFDKFLEERAKAADRLPNLSS
notes: monomer by light scattering and ultracentrifugation; also called Tom1 MBM; source: E. coli BL21 (DE3), purified (Ni-NTA, SEC); not shown: thioredoxin, N-terminal, cleaved; His6, N-terminal, cleaved
B2: Tom1(215–493) (domain or fragment, human, UniProt O60784-2 215-493, looked up)
chain: EQIGKLRSELEMVSGNVRVMSEMLTELVPTQAEPADLELLQELNRTCRAMQQRVLELIPQIANEQLTEELLIVNDNLNNVFLRHERFERFRTGQTTKAPSEAEPAADLIDMGPDPAATGNLSSQLAGMNLGSSSVRAGLQSLEASGRLEDEFDMFALTRGSSLADQRKEVKYEAPQATDGLAGALDARQQSTGAIPVTQACLMEDIEQWLSTDVGNDAEEPKGVTSEGKFDKFLEERAKAADRLPNLSSPSAEGPPGPPSGPAPRKKTQEKDDDMLFAL
notes: source: E. coli BL21 (DE3), purified (Ni-NTA, SEC); not shown: thioredoxin, N-terminal, cleaved; His6, N-terminal, cleaved
B3: Tom1(392–493) (domain or fragment, human, UniProt O60784-2 392-493, looked up)
chain: TDGLAGALDARQQSTGAIPVTQACLMEDIEQWLSTDVGNDAEEPKGVTSEGKFDKFLEERAKAADRLPNLSSPSAEGPPGPPSGPAPRKKTQEKDDDMLFAL
notes: 15N-labelled in one NMR titration; source: E. coli BL21 (DE3), purified (Ni-NTA, SEC); not shown: thioredoxin, N-terminal, cleaved; His6, N-terminal, cleaved
B4: Tom1(392–463) (domain or fragment, human, UniProt O60784-2 392-463, looked up)
chain: TDGLAGALDARQQSTGAIPVTQACLMEDIEQWLSTDVGNDAEEPKGVTSEGKFDKFLEERAKAADRLPNLSS
notes: as for B3
B5: Tom1(437–493) (domain or fragment, human, UniProt O60784-2 437-493, looked up)
chain: GVTSEGKFDKFLEERAKAADRLPNLSSPSAEGPPGPPSGPAPRKKTQEKDDDMLFAL
notes: as for B2
B6: C-terminal cargo-binding domain (CBD) of Myosin VI (residues 1157–1285) (domain or fragment, human, UniProt Q9UM54-1 1157-1285, looked up)
chain: ARQREIEMNRQQRFFRIPFIRPADQYKDPQSKKKGWWYAHFDGPWIARQMELHPDKPPILLVAGKDDMEMCELNLEETGLTRKRGAEILPRQFEEIWERCGGIQYLQNAIESRQARPTYATAMLQSLLK
notes: monomer by light scattering and ultracentrifugation; 15N-labelled in some NMR experiments; also called C-terminal CBD of Myosin VI; source: E. coli BL21 (DE3), purified (Ni-NTA, SEC); not shown: thioredoxin, N-terminal, cleaved; His6, N-terminal, cleaved

molecular target: B6; experiment: SEC + SEC-MALS + AUC; analytical gel filtration, multi-angle light scattering (20 mM Tris-HCl pH 7.9, 100 mM NaCl, 1 mM DTT) and sedimentation velocity (20 °C) of each protein alone and of the complex; conditions: both partners purified

| stoichiometry N | Binder |
| --- | --- |
| 1 | B1 |

molecular target: B6; experiment: ITC; 25 °C, 20 mM Tris pH 7.9, 100 mM NaCl, 1 mM DTT; 50 µM protein in the cell, 500 µM in the syringe; one-site binding model; conditions: both partners purified

| dH | stoichiometry N | Kd | Binder |
| --- | --- | --- | --- |
| -7.61 ± 0.09 kcal/mol | 1.44 ± 0.01 |  | B2 |
| -14.9 ± 0.1 kcal/mol | 0.74 ± 0.01 | 670 nM | B1 |
| -9.9 ± 0.11 kcal/mol | 1.12 ± 0.01 | 930 nM | B3 |
| -10.6 ± 0.16 kcal/mol | 0.91 ± 0.01 | 760 nM | B4 |
| -12.7 ± 0.11 kcal/mol | 0.83 ± 0.01 | 760 nM | B5 |

molecular target: B2; experiment: as above; conditions: both partners purified

| Kd | Binder |
| --- | --- |
| 2130 nM | B6 |
